According to patent publication US20250218531A1:
Where “and” joins values, the source holds several entries; their conditions need not be identical. Equal values may be shown once. Read-outs that look alike come from different tables or passages of the source.

What was measured:
[1] = molecular target: human vascular endothelial growth factor A (VEGF-A) (human) (UniProt P15692)
[2] = molecular target: human epidermal growth factor receptor 2 (HER2) extracellular domain (human) (UniProt P04626); assay: SPR
[3] = molecular target: human vascular endothelial growth factor A (VEGF-A) (human) (UniProt P15692); assay: SPR
[4] = molecular target: human epidermal growth factor receptor 2 (HER2) extracellular domain (human) (UniProt P04626); assay: not stated (FIG. 6A)
[5] = molecular target: human vascular endothelial growth factor A (VEGF-A) (human) (UniProt P15692); assay: not stated (FIG. 6A)
[6] = molecular target: human vascular endothelial growth factor A (VEGF-A) (human) (UniProt P15692); assay: SPR, table row 15
[7] = molecular target: human vascular endothelial growth factor A (VEGF-A) (human) (UniProt P15692); assay: SPR, table row 17
[8] = molecular target: human vascular endothelial growth factor A (VEGF-A) (human) (UniProt P15692); assay: SPR, table row 18
[9] = molecular target: human epidermal growth factor receptor 2 (HER2) extracellular domain (human) (UniProt P04626); assay: SPR, table row 12
[10] = molecular target: human vascular endothelial growth factor A (VEGF-A) (human) (UniProt P15692); assay: SPR, table row 12
[11] = molecular target: human epidermal growth factor receptor 2 (HER2) extracellular domain (human) (UniProt P04626); assay: SPR, table row 20
[12] = molecular target: human vascular endothelial growth factor A (VEGF-A) (human) (UniProt P15692); assay: SPR, table row 20

Sequence of human vascular endothelial growth factor A (VEGF-A) (human) (P15692 220-313 limits assumed): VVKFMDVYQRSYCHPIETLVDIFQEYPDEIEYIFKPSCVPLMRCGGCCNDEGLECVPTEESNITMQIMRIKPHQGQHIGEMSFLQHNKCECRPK

Which Kd [1] does the source give for Trastuzumab bH1 (antibody) here?
The Kd was 24.8 nM and 26.2 nM and 31.1 nM.

And the koff [1]?
Its koff is 0.00027 s⁻¹ and 0.000282 s⁻¹ and 0.000342 s⁻¹.

And the kon [1]?
The kon was 10900 M⁻¹ s⁻¹ and 10800 M⁻¹ s⁻¹ and 11000 M⁻¹ s⁻¹.

What about the Kd [2] of the same substance?
The Kd was 32.9 nM.

What about the Kd [3] of the same substance?
The Kd was 23.5 nM.

What about the Kd [4] of the same substance?
Its Kd is 26 nM.

And the Kd [5]?
Its Kd is 300 nM.

What about the Kd [6] of the same substance?
The Kd was 21.8 nM.

And the koff [6]?
The koff was 0.000254 s⁻¹.

What about the kon [6] of the same substance?
The kon was 11700 M⁻¹ s⁻¹.

And the Kd [7]?
Its Kd is 22.7 nM.

And the koff [7]?
The koff was 0.00028 s⁻¹.

What about the kon [7] of the same substance?
Its kon is 12300 M⁻¹ s⁻¹.

What about the Kd [8] of the same substance?
The Kd was 23.2 nM.

And the koff [8]?
Its koff is 0.00025 s⁻¹.

And the kon [8]?
Its kon is 10800 M⁻¹ s⁻¹.

What about the Kd [9] of the same substance?
Its Kd is 3.22 nM.

And the koff [9]?
The koff was 6.2e-05 s⁻¹.

And the kon [9]?
Its kon is 19300 M⁻¹ s⁻¹.

And the Kd [10]?
The Kd was 18.4 nM.

What about the koff [10] of the same substance?
The koff was 0.000211 s⁻¹.

What about the kon [10] of the same substance?
The kon was 11500 M⁻¹ s⁻¹.

What about the Kd [11] of the same substance?
The Kd was 10.3 nM.

What about the koff [11] of the same substance?
Its koff is 9.72e-05 s⁻¹.

And the kon [11]?
The kon was 9470 M⁻¹ s⁻¹.

And the Kd [12]?
Its Kd is 24.2 nM.

And the koff [12]?
The koff was 0.00026 s⁻¹.

What about the kon [12] of the same substance?
Its kon is 10800 M⁻¹ s⁻¹.
